# B1: Example 2: Immunoregulatory fusion protein (SIRPα-linker, SEQ ID NO 1) bound 1 : 1 via cysteine thiol-maleimide to CD47 siRNA (SEQ ID NO 17/18) (conjugate)
# chain 1: EEELQIIQPDKSVLVAAGETATLRCTITSLFPVGPIQWFRGAGPGRVLIYNQRQGPFPRVTTVSDTTKRNNMDFSIRIGNITPADAGTYYCIKFRKGSPDDVEFKSGAGTELSVRAKPVDGGFLGGGGCG
# chain 2: gggauauuaauacuacuucaguacaca
# chain 3: uguacugaaguauuaauauccccg
# modifications: cysteine thiol-maleimide conjugation of protein to siRNA; fusion protein; siRNA_DNA : The 26th and 27th nucleotide sequences are DNA; siRNA ansti sense
# What was measured:
# CD47 gene = test: Silencing effect for CD47 gene expression (RT-PCR, agarose gel); type: cell-based, mouse; conditions: CT26.CL25 cells, 4 hours serum-free then 2 days, without CD47 antibody (-)
# HPRT gene = test: Silencing effect for HPRT gene expression (RT-PCR, agarose gel); type: cell-based, rat; conditions: CT26.CL25 cells, 4 hours serum-free then 2 days
# [1] = system: macrophages (bone marrow-derived macrophages, BMDM); test: Macrophage phagocytosis of treated cancer cells (fluorescence microscopy); type: cell-based, mouse
# Procedure: After the culturing was completed, the CT26.CL25 cells were stained with pHrodo Red (Invitrogen, CA, USA) and, after adding macrophages (bone marrow-derived macrophages, BMDM) extracted from the bone marrow of a laboratory mouse (C57BL/6, male, 6-week-old), cultured for 3 hours in RPMI 1640 medium. The macrophages were stained with Green Cell Tracker (Thermo Fisher Scientific, MS, USA) and fluorescence was measured using a fluorescence microscope (Nikon, Japan).
# A control group was treated only with the SIPRα protein.
# cancer cells = test: Pharmacological effect on cancer cells (general statement, no method given)
# CT26.CL25 cells = test: Cytotoxicity by CCK-8 (cell counting kit-8); type: cell-based, mouse; conditions: 800 nM, 72 hours
# Procedure: Then, the cells were analyzed using the CCK-8 (cell counting kit-8) kit.
# HT-29 cells = test: Intracellular delivery (uptake) by confocal microscopy; type: cell-based, human
# Procedure: First, 2×10^5 HT-29 cells, which are human-derived colon cancer cells, were seeded onto a 35-mm cover glass bottom dish. […] Then, CD47 SiRNA was stained red by using the TOTO3 stain. Next, after treating with the fusion protein-siRNA complex separated and purified in Example 2 at a concentration of 100 pmol/mL, the cells were cultured for 4 hours in a carbon dioxide incubator at 37 °C. Then, the cells were treated with a fixative and the SIRPα protein was stained green using FITC-labeled His-tag antibody. After staining the nuclei of the cells by treating with a 4',6-diamidino-2-phenylindole (DAPI) solution for 10 minutes, fluorescence was measured by confocal microscopy.
# In the figure, the blue color corresponds to the nuclei of the cells, the red color to the CD47 siRNA, and the green color to the SIRPα protein.
# papain enzyme = target: T1, papain enzyme (Carica papaya, UniProt P00784); test: Enzyme specificity: cleavage by papain enzyme, analysed by HPLC; type: biochemical
# T1 sequence (P00784 134-345): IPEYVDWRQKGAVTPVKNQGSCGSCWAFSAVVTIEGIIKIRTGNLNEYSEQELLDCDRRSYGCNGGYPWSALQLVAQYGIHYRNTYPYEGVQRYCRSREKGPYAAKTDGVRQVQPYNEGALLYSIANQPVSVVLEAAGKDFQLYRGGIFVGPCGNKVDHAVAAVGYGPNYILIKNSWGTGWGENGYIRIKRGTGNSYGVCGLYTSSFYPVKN
# Procedure: After adsorbing the sample to a C18 column (Xbridge C18, Waters, MS, USA), it was analyzed by HPLC (Agilent Technologies, CA, USA) while eluting for 30 minutes with concentration gradients using 0.1% TFA/5-95% ACN solutions.
molecule,measurement,setting,value
B1,expression of the CD47 gene,CD47 gene,decreases the expression of the CD47 gene to a level comparable to that of the lipofectamine-siRNA complex
same,expression level of the HPRT gene,HPRT gene,little change in the expression level of the HPRT gene
same,phagocytosis by macrophages,"[1]; CT26.CL25 cells treated at 200 pmol/mL for two days, then BMDM for 3 hours, compared with siRNA alone",enhances phagocytosis by macrophages better than when the siRNA was used alone
same,effect of enhancing macrophage phagocytosis as compared to only the siRNA (CD47 siRNA) or the SIPRα protein,[1]; printed as 1.5-3 times or higher,1.5-3 times
same,superior pharmacological effect on cancer cells as compared to the fusion protein or the siRNA administered alone,cancer cells,1.5-5 times
same,cell viability,CT26.CL25 cells,≥ 80%
same,absorption into cells,HT-29 cells; confocal microscopy,effectively absorbed into cells
same,intracellular uptake,HT-29 cells; treated together with the CD47 antibody,decreased significantly
same,SIRPα protein detected by HPLC,"papain enzyme; after treating with the papain enzyme, room temperature, 10 minutes",detected after treating with the papain enzyme
same,SIRPα protein detected by HPLC,papain enzyme; complex not treated with the papain enzyme (control),not detected

# Source: patent EP4197559A1, “IMMUNOMODULATORY PROTEIN-SIRNA COMPLEX HAVING ANTICANCER ACTIVITY” (Korea Institute of Science and Technology, priority 2020, dated 2022)
